From article PMC10836720 come the findings set out here.

A word on the stoichiometry N: it is the number of molecules, sites or subunits per partner or assembly.

The target in the test is A. baumannii 118362 Family 2A encapsulin shell protein (J517_0527) (Acinetobacter baumannii 118362). Put plainly: cryo-EM structure.

On to “A. baumannii 118362 Family 2A encapsulin shell protein (J517_0527) (natural protein)”, for which the stoichiometry N turned out to be 60 subunits.
